T1: Recombinant Human Fc gamma RIIB/C (CD32b/c) Protein (R&D Systems), His-tagged (human, UniProt P31994 46-217)
T1 construct: also called human FcγRIIb/c; hFcγRIIb/c
T1 sequence: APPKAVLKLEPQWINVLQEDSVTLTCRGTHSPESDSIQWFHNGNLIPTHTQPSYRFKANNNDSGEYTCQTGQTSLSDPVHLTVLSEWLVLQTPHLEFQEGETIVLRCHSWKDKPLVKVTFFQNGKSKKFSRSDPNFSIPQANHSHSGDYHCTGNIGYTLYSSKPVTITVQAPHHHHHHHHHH

T2: Recombinant Human Fc gamma RIIIB/CD16b Protein (R&D Systems), His-tagged (human, UniProt O75015 20-208)
T2 construct: also called human FcγRIIIb; hFcγRIIIb
T2 chain: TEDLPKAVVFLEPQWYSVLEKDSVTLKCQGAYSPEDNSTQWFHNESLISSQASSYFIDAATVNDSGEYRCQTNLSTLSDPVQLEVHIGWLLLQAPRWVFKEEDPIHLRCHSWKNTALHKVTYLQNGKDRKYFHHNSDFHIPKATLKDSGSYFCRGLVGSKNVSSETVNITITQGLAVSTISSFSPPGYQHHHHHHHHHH

T3: Recombinant Human Fc gamma RIIA/CD32a (R167) Protein (R&D Systems), His-tagged (human, UniProt P12318 36-218)
T3 construct: also called human FcγRIIa; hFcγRIIa
T3 chain: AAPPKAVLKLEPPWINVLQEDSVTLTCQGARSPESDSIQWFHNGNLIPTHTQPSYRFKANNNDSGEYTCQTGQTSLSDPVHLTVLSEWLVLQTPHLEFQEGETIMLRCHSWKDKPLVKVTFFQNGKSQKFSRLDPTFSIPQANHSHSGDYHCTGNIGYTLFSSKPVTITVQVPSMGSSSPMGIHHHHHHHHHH

B1: LALA-DG variant of the anti-CD70 antibody vorsetuzumab (IgG1) (antibody, name in EU numbering)
heavy: QVQLVQSGAEVKKPGASVKVSCKASGYTFTNYGMNWVRQAPGQGLKWMGWINTYTGEPTYADAFKGRVTMTRDTSISTAYMELSRLRSDDTAVYYCARDYGDYGMDYWGQGTTVTVSSASTKGPSVFPLAPSSKSTSGGTAALGCLVKDYFPEPVTVSWNSGALTSGVHTFPAVLQSSGLYSLSSVVTVPSSSLGTQTYICNVNHKPSNTKVDKRVEPKSCDKTHTCPPCPAPEAAGGPSVFLFPPKPKDTLMISRTPEVTCVVVGVSHEDPEVKFNWYVDGVEVHNAKTKPREEQYNSTYRVVSVLTVLHQDWLNGKEYKCKVSNKALPAPIEKTISKAKGQPREPQVYTLPPSREEMTKNQVSLTCLVKGFYPSDIAVEWESNGQPENNYKTTPPVLDSDGSFFLYSKLTVDKSRWQQGNVFSCSVMHEALHNHYTQKSLSLSPGK
light: DIVMTQSPDSLAVSLGERATINCRASKSVSTSGYSFMHWYQQKPGQPPKLLIYLASNLESGVPDRFSGSGSGTDFTLTISSLQAEDVAVYYCQHSREVPWTFGQGTKVEIKRTVAAPSVFIFPPSDEQLKSGTASVVCLLNNFYPREAKVQWKVDNALQSGNSQESVTEQDSKDSTYSLSSTLTLSKADYEKHKVYACEVTHQGLSSPVTKSFNRGEC
notes: also called Anti-CD70 Antibody LALA-DG
B2: LALA-DG variant of the anti-LPS antibody O11-1111 (IgG1) (antibody)
heavy: QVQLVQSGAEVKKPGASVKVSCKASGYTFTSYWINWVRQAPGQGLEWMGNIYPGSSSINYNEKFKSRVTITADTSTSTAYMELSSLRSEDTAVYYCARTIYNYGSSGYNYAMDYWGQGTLVTVSSASTKGPSVFPLAPSSKSTSGGTAALGCLVKDYFPEPVTVSWNSGALTSGVHTFPAVLQSSGLYSLSSVVTVPSSSLGTQTYICNVNHKPSNTKVDKRVEPKSCDKTHTCPPCPAPEAAGGPSVFLFPPKPKDTLMISRTPEVTCVVVGVSHEDPEVKFNWYVDGVEVHNAKTKPREEQYNSTYRVVSVLTVLHQDWLNGKEYKCKVSNKALPAPIEKTISKAKGQPREPQVYTLPPSREEMTKNQVSLTCLVKGFYPSDIAVEWESNGQPENNYKTTPPVLDSDGSFFLYSKLTVDKSRWQQGNVFSCSVMHEALHNHYTQKSLSLSPGK
light: DIVMTQSPDSLAVSLGERATINCKASENVGNSVSWYQQKPGQPPKLLIYGASNRYTGVPDRFSGSGSGTDFTLTISSLQAEDVAVYYCGQSYSYPYTFGQGTKVEIKRTVAAPSVFIFPPSDEQLKSGTASVVCLLNNFYPREAKVQWKVDNALQSGNSQESVTEQDSKDSTYSLSSTLTLSKADYEKHKVYACEVTHQGLSSPVTKSFNRGEC
notes: substitutions in EU numbering; also called Anti-LPS Antibody LALA-DG

Assays:
[1] = target: T4, Recombinant Human Fc gamma RI/CD64 Protein, CF (R&D Systems), His-tagged (human, UniProt P12314 16-288); assay: SPR (Biacore T200), RU at 4.7 µM antibody, anti-CD70 antibody vorsetuzumab
T4 construct: also called human FcγRI; hFcγRI
Procedure: The FcγRI ligand was captured on a sensor chip on which anti-His antibodies were immobilized. Various anti-EGFR antibodies as analytes were then added to the sensor chip to measure an interaction between the ligand and the analyte by surface plasmon resonance (SPR) method.
Briefly, anti-6×His tag antibodies [AD1.1.10] (Abcam plc, Cambridge, UK) were immobilized on Sensor Chip CM5 (Cytiva, Marlborough, MA) according to the manufacturer's instructions, and then Recombinant Human Fc gamma RI/CD64 Protein (R & D Systems) prepared at 10 μg/mL in HBS-EP+ (GE Healthcare, Chicago, IL) was captured by contacting it with the sensor chip at 10 μL/min for 60 seconds. Then, the anti-EGFR antibody prepared at each of the given concentrations in HBS-EP+ was added to the sensor chip at a flow rate of 30 μL/min for 120 seconds.

[2] = target: T1, Recombinant Human Fc gamma RIIB/C …; assay: SPR (Biacore T200); receptor immobilized directly on CM5 chip, antibody as analyte at 4.7 µM
Procedure: (§1) After immobilizing human FcγR as a ligand directly on the sensor chip, various anti-EGFR antibodies as analysts were added to the sensor chip to measure an interaction between the ligand and the analysts by the SPR method.

[3] = target: T5, Recombinant Human Fc gamma RIIIA/CD16a protein (R&D Systems), His-tagged (human, UniProt P08637 17-208); assay: as above
T5 construct: also called human FcγRIIIa; hFcγRIIIa
Procedure: as §1

[4] = target: T2, Recombinant Human Fc gamma RIIIB/CD16b …; assay: as above
Procedure: as §1

[5] = target: T4, Recombinant Human Fc gamma RI/CD64 …; assay: SPR (Biacore T200): His-tagged human FcγRI captured on an anti-His antibody chip, antibody as analyte; RU plotted against antibody concentration
[6] = target: T4, Recombinant Human Fc gamma RI/CD64 …; assay: SPR (Biacore T200), RU at 4.7 µM antibody, anti-LPS antibody O11-1111
Procedure: (§2) The binding activity of an anti-EGFR antibody, into which known effectorless mutations were introduced, to human FcγRI (hFcγRI), was evaluated using Biacore™ T200 (Cytiva, Marlborough, MA). […] The noted mutations were introduced into both CH2 domains of the Fc region. […] The FcγRI ligand was captured on a sensor chip on which anti-His antibodies were immobilized. Various anti-EGFR antibodies as analytes were then added to the sensor chip to measure an interaction between the ligand and the analyte by surface plasmon resonance (SPR) method.
(§3) Briefly, anti-6×His tag antibodies [AD1.1.10] (Abcam plc, Cambridge, UK) were immobilized on Sensor Chip CM5 (Cytiva, Marlborough, MA) according to the manufacturer's instructions, and then Recombinant Human Fc gamma RI/CD64 Protein (R & D Systems) prepared at 10 μg/mL in HBS-EP+ (GE Healthcare, Chicago, IL) was captured by contacting it with the sensor chip at 10 μL/min for 60 seconds.

[7] = target: T3, Recombinant Human Fc gamma RIIA/CD32a …; assay: SPR (Biacore T200); receptor immobilized directly on CM5 chip, antibody as analyte at 4.7 µM
Procedure: as §1

[8] = target: T4, Recombinant Human Fc gamma RI/CD64 …; assay: SPR (Biacore T200); His-tagged receptor captured on anti-His antibody chip, antibody as analyte at 4.7 µM; reference: LALA variant of the same antibody (anti-LPS O11-1111)
Procedure: as §2, §3

T4 sequence (P12314 other isoform, or with tags, fused parts or gaps): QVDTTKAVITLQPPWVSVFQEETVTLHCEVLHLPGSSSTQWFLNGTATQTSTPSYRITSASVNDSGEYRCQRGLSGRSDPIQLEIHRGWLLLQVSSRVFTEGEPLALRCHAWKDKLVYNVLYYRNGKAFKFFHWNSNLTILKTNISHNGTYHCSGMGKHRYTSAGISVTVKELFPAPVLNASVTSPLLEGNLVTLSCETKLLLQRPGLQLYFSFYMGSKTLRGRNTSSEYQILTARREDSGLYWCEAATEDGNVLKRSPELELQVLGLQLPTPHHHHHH
T5 sequence (P08637 other isoform, or with tags, fused parts or gaps): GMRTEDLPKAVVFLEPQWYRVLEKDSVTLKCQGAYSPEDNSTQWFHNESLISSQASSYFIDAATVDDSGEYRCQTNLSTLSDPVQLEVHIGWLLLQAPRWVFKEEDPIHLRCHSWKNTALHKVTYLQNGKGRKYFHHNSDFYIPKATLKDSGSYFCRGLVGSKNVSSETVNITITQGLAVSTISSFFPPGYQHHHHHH

| Binder | RU value relative to the LALA variant [1] | binding response (RU) [2] | binding response (RU) [3] | binding response (RU) [4] | binding result [5] | RU value relative to the LALA variant [6] | binding response (RU) [7] | RU value relative to that of the LALA variant [8] |
| --- | --- | --- | --- | --- | --- | --- | --- | --- |
| B1 | ~0.005 fold | 1.3 RU | -2.1 RU | -3.7 RU | no binding (tested: 4.7 µM) | – | – | – |
| B2 | – | -2.6 RU | -7.2 RU | -7.1 RU | – | ~0.0033 fold | -2.2 RU | ~0.0033 ratio (LALA-DG RU / LALA RU) |

Source: patent US20240239915A1 (Zymeworks, published 2024)
